# From patent US6753413
# How the values were obtained:
# [1] = biological target: reconstituted Nclk (GST-p25/GST-Cdk5 complex) [GST: P08515]; experiment: cell-based or functional assay
# GST-C48 (SEQ. ID NO 4) = test system: T1, GST-C48 (SEQ. ID NO 4)
# T1 sequence: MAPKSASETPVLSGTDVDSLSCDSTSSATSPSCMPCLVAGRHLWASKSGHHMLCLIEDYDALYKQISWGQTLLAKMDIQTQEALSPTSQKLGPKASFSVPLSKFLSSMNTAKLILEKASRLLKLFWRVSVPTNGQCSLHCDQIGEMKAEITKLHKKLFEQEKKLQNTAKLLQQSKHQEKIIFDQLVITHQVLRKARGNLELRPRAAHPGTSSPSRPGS
# GST-C53 (SEQ ID NO 6) = test system: T2, GST-C53 (SEQ ID NO 6)
# T2 sequence: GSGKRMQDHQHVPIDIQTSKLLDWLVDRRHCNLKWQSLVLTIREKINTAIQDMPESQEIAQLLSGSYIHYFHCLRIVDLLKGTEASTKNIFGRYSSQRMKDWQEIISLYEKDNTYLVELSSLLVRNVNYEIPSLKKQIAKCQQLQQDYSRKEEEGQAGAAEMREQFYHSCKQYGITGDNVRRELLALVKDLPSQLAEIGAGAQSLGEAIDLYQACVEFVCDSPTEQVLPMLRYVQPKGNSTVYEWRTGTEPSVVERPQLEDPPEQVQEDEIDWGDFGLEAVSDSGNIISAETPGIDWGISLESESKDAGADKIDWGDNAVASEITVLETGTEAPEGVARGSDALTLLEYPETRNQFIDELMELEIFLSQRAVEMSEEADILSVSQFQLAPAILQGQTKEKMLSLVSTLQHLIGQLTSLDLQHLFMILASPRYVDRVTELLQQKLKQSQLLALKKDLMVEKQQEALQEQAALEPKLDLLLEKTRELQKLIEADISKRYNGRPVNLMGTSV
Substance,inhibition of Cdk5 kinase activity [1] [%],"phosphorylation by reconstituted Nclk (autoradiograph, Mg[γ-32P]ATP) (GST-C48 (SEQ. ID NO 4))","phosphorylation by reconstituted Nclk (autoradiograph, Mg[γ-32P]ATP) (GST-C53 (SEQ ID NO 6))"
GST-C48 (SEQ. ID NO 4) (from UniProt Q9JLH5 1686-1903),< 20,–,–
GST-C53 (SEQ ID NO 6) (from UniProt Q9JLH7 1-504),< 20,–,–
reconstituted Nclk (GST-p25/GST-Cdk5 complex),–,"the SEQ ID NO 4 (C48) and SEQ ID NO 6 (C53) proteins, but not the SEQ ID NO 2 (C42) protein, were phosphorylated by Cdk5 kinase","the SEQ ID NO 4 (C48) and SEQ ID NO 6 (C53) proteins, but not the SEQ ID NO 2 (C42) protein, were phosphorylated by Cdk5 kinase"
